Experimental data taken from patent publication US11180767B2, “Protease deficient filamentous fungal cells and methods of use thereof” (GLYKOS FINLAND OY, priority 2012, dated 2021).

Assays:
[1] = system: SIP purified proteases (PEP2, PEP3, PEP4, PEP5, GAP1, SLP2); assay: Protease activity of SIP purified fractions against casein with inhibitors (EnzChek); type: biochemical, Trichoderma reesei; conditions: pH 5.5
Procedure: Protease activity was then tested against casein both in the presence and absence of protease inhibitors. Protease activity against casein was tested using the EnzChek protease assay kit (Molecular probes #E6638, green fluorescent casein substrate). The working stock solution was prepared by diluting the stock to 10 μg ml in 50 mM sodium citrate, pH 5.5. The purified protease fractions (10 μl) were diluted with […] of sodium citrate, pH 5.5. 100 μl of the diluted substrate was combined with the diluted protease fractions in a 96 well sample plate. The plate was then covered and kept at 37° C. for one to three hours. Fluorescence readings were taken at one, two, and three hours with a Varioskan fluorescent plate reader (Thermo Scientific) using 485 nm excitation and 530 nm emission.
The SIP inhibitor peptide, pepstatin A, LIP peptide, SBTI, and chymostatin were used as inhibitors. […] SIP, LIP, and pepstatin A were used at a concentration of 60 μM, and SBTI was used at a concentration of 200 μg/ml.

[2] = system: proteases in supernatant from the 6-fold protease deletion strain M400; assay: Protease stability of proteins spiked into supernatant of the 6-fold protease deletion strain; type: biochemical, Trichoderma reesei; conditions: pepstatin A 50 μM; SBTI 0.2 mg/ml; pH 4.2, 20 hours, 37°C
Procedure: The protease stability of the model proteins IGF1, hGH, and IFNα2b were analyzed by spiking them into supernatant from the 6-fold protease deletion strain (Δpep1Δtsp1Δslp1Δgap1Δgap2Δpep4) M400. The supernatant was collected from a large shake flask culture CAH15. The undiluted supernatant from the shake flask cultivation CAH15 was incubated with the purified model proteins with and without pepstatin A (50 μM) and SBTI (0.2 mg/ml) inhibitors for 20 hours at 37° C. The 5 day culture supernatant pH was around 4.2. The reaction containing 0.05 μg μl of model protein was sampled after 20 hours. 50 mM sodium citrate pH 4.0 spiked with model proteins (0.05 g 1) was used as a buffer control.
From each reaction 10 μl was loaded into an 18% SDS PAGE gel and run for 30 minutes at 200 V. The proteins in the gel were then transferred to nitrocellulose for immunoblotting. The nitrocellulose membrane was blocked for 1 hour at room temperature with 5% milk in TBST buffer. The individual blots were probed with their specific primary antibody to detect the appropriate model protein for 1 hour at room temperature on a shaker. The mouse anti-IGF1 antibody (R&D systems #mab291) was used at 2 μg/ml diluted in TBST. The mouse anti-rhGH antibody (Abeam #ab51232) was used at 2 μg/ml diluted in TBST. The mouse anti-IFNα2b antibody (Abeam #ab9386) was used at 1 μg/ml diluted in TBST. […]

[3] = system: M369 human growth hormone strain; assay: hGH production in 24 well cultures with inhibitors and supplements; type: cell-based, Trichoderma reesei; conditions: 24 well culture, pH 4.5, day 4 immunoblot
Procedure: To evaluate what inhibitors would best stabilize production of hGH, 24 well cultures of these strains were performed. The M369 human growth hormone strain (Δpep1Δtsp1Δslp1Δgap1Δgap2) was grown along with single components or with combinations of the following: trypsin and subtilisin inhibitor SBTI, the acidic protease inhibitor peptide SIP, the acidic protease inhibitor peptide LIP, the aspartic protease inhibitor pepstatin A free peptide, pepstatin A immobilized to agarose beads, the trypsin and subtilisin inhibitor BBI from lima bean, the […] chymostatin, and BSA. Three independent wells were chosen for control wells where no inhibitors or supplements were added. These two strains were grown in 3 ml of TrMM with diammonium citrate without ammonium sulfate, 100 mM PIPPS, 20 g/L spent grain extract, 40 g/L lactose adjusted to pH 4.5. The 24 well plates were shaken at 800 rpm, 85% humidity, and 28° C. The cultures were grown for 6 days and covered with an air permeable membrane.
Inhibitors were added first on day 1 and then daily beginning on day 3. 100 μl samples were taken from the culture wells beginning on day 3. The mycelium was spun down for 5 minutes at 13 k and the supernatant collected. […]

B1: SBTI: soybean trypsin inhibitor, trypsin and subtilisin inhibitor (protein)
chain: DFVLDNEGNPLENGGTYYILSDITAFGGIRAAPTGNERCPLTVVQSRNELDKGIGTIISSPYRIRFIAEGHPLSLKFDSFAVIMLCVGIPTEWSVVEDLPEGPAVKIGENKDAMDGWFRLERVSDDEFNNYKLVFCPQQAEDDKCGDIGISIDHDDGTRRLVVSKNKPLVVQFQKLDKESL
[1]; SIP, LIP, pepstatin A 60 μM, SBTI 200 μg/ml
  proteases inhibited: able to inhibit SLP2 and PEP4
[1]; FIG. 11
  inhibition of SIP purified protease activity against casein: able to inhibit the SLP2 protease
[2]
  stabilisation of hGH, IFNα2b and IGF1 in supernatant: only a small benefit for product stability
[3]
  effect on hGH production: improved production
